Measurements: paper PMC12669963, “PGAM5 cleavage and oligomerization equilibrates mitochondrial dynamics under stress by regulating DRP1 function” (Journal of Cell Science, 2025)

Molecular target: the molecule itself
Assay: native gel or EMSA; native-PAGE of U2OS lysates (50 mM Tris-HCl pH 7.4, 150 mM NaCl, 0.5% Triton X-100), steady state or CCCP, immunoblot for endogenous PGAM5

B1: endogenous PGAM5 (natural protein, human (endogenous in HEK293 and U2OS), UniProt Q96HS1 1-289, looked up)
chain: MAFRQALQLAACGLAGGSAAVLFSAVAVGKPRAGGDAEPRPAEPPAWAGGARPGPGVWDPNWDRREPLSLINVRKRNVESGEEELASKLDHYKAKATRHIFLIRHSQYHVDGSLEKDRTLTPLGREQAELTGLRLASLGLKFNKIVHSSMTRAIETTDIISRHLPGVCKVSTDLLREGAPIEPDPPVSHWKPEAVQYYEDGARIEAAFRNYIHRADARQEEDSYEIFICHANVIRYIVCRALQFPPEGWLRLSLNNGSITHLVIRPNGRVALRTLGDTGFMPPDKITRS
notes: endogenous PGAM5; source: endogenous, HEK293 and U2OS lysate
stoichiometry N: 2
